Results reported in patent publication US20170081379A1.

Target: recombinant HDM2 17-125 (human) (UniProt Q00987)
Assay: fluorescence polarization, FITC-labeled peptide with HDM2 17-125

Chain of recombinant HDM2 17-125 (human) (Q00987 17-125 limits assumed): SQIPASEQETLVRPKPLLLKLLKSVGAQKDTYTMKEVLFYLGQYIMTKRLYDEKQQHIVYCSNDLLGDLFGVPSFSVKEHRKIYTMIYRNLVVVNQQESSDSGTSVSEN

Kd: > 4 µM
Substance: FITC-SAH-p53-8F19A (peptide)
